Reference: patent publication US20140140975A1

How the values were obtained:
[1] = molecular target: Fas death receptor (mouse) (UniProt P25446); assay: cell-based or functional assay
recombinant human GRX1 = recombinant human GRX1 (UniProt P35754)
UniProt P35754, sequence (P35754 whole entry): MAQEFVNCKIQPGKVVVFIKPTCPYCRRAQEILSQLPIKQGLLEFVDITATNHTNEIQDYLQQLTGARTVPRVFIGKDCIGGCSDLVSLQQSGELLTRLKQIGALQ

UniProt P25446, sequence (P25446 22-327): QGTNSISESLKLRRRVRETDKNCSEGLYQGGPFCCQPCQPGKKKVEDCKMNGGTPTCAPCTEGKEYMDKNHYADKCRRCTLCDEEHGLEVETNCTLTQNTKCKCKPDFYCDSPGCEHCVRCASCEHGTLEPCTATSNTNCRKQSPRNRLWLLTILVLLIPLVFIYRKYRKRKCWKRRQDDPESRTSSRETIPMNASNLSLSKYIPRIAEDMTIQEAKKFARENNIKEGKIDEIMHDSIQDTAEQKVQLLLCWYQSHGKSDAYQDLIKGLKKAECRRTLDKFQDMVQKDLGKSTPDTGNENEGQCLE

| Substance | catalytic activity of GRX1 in lung epithelial cells [1] [% decrease] | cleavage of GRX1 (Western Blotting) (recombinant human GRX1) |
| --- | --- | --- |
| Fas Ligand | 50 | – |
| recombinant Caspase 3 | – | Treatment of recombinant human GRX1 with recombinant Caspase 8 or 3 results in cleavage of GRX1 |
| recombinant Caspase 8 | – | Treatment of recombinant human GRX1 with recombinant Caspase 8 or 3 results in cleavage of GRX1 |
